Experimental data: article PMC13376213 (2026)
Numbering of substitutions follows the chain as printed. In names and notes the source's numbering stands. * marks the point of attachment. FITC = O=C1OC2(c3ccc(O)cc3Oc3cc(O)ccc32)c2ccc(NC(=S)*)cc21

T1: USP22 zf-UBP (Homo sapiens, UniProt Q9UPT9)
T1 chain: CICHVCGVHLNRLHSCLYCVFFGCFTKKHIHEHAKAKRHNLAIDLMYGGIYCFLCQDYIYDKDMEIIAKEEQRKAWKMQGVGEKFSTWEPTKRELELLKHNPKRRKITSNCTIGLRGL

T2: USP20 DUSP2 domain N805A (for FP) (human)
T2 chain: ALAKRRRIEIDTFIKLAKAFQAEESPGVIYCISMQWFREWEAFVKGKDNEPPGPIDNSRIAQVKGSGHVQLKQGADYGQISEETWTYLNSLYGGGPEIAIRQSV

T3: USP20 DUSP2 domain K833E/K835E (for FP) (human)
T3 chain: T2 chain with A17N, K45E, K47E

T4: USP33 DUSP2 domain, tag cleaved (for FP) (human, UniProt Q8TEY7 1-942)
T4 chain: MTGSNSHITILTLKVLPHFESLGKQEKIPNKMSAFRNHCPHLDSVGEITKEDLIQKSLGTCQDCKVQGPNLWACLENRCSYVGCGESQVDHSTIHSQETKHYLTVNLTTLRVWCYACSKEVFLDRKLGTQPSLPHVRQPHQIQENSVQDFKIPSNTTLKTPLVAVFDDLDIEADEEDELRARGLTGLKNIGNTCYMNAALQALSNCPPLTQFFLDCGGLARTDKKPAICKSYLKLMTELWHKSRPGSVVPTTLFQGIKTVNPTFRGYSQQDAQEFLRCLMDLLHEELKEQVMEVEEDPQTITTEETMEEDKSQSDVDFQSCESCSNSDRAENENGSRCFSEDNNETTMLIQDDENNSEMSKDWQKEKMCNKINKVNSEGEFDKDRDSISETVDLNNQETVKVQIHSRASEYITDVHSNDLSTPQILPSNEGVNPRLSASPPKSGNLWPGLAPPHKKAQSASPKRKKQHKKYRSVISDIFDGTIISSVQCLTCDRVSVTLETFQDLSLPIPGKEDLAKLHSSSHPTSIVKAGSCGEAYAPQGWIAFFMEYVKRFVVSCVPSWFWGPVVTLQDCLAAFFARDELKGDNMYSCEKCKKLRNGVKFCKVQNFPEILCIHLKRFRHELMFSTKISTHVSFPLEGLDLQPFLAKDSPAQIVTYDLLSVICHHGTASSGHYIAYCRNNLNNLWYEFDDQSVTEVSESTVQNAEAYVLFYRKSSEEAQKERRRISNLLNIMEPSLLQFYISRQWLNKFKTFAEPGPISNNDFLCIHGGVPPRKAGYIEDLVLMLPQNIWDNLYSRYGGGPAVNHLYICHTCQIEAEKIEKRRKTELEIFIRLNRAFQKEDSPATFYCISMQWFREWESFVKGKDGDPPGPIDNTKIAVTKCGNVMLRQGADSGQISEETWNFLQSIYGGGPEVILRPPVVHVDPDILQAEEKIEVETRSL

T5: USP33 zf-UBP domain, tag cleaved (for FP) (human, UniProt Q8TEY7 1-942)
T5 chain: T4 chain


Target: T1, USP22 zf-UBP
Test: fluorescence polarization (direct for FITC probes, competitive otherwise)

Kd | Binder
58.4 µM | LPSPEVMLGQSWNLWVE (FITC label on probe peptides (FITC- prefix)) [ATXN7]
19.4 µM | VPSLDDFAGQSWSSWVE (FITC label on probe peptides (FITC- prefix)) [ATXN7L2_18-34]

Target: T2, USP20 DUSP2 domain N805A (for FP)
Test: FP

Kd | Binder
> 130 µM | {FITC}-SDDDLAWNIAPQGLQ-NH2 [FITC-GPR137B 348-362]

target: USP20 DUSP2 domain, tag cleaved (for FP) (human); test: FP

Binder | Kd
Ac-QLEEELFQLRQGPAG-NH2 [CCDC88B_(947-961) peptide] | 22 µM
Ac-PYIPMDDDFQLRSFDQLS-NH2 [HIF1A 564-581] | 19 µM
Ac-SDDDLAWNIAPQGLQ-NH2 [GPR137B_(348-362) peptide] | 10 µM
Ac-PYIPMDKDFQLRSFDQLS-NH2 [HIF1A 564-581 D570K] | 19 µM
{FITC}-SDDDLAWNIAPQGLQ-NH2 [FITC-GPR137B 348-362] | 5 µM

The next lines start with the values.

Kd | Binder
> 200 µM | Ac-PYIPMDGEDFQLSPICPE-NH2 [HIF2A peptide 531-548]
45 µM | Ac-DVVDDFQLQHRHGPG-NH2 [MFSD2B_(395-409) peptide]
89 µM | Ac-PYIPMDDDFQARSFDQLS-NH2 [HIF1A 564-581 L574A]
85 µM | Ac-PYIPMDDKFQLRSFDQLS-NH2 [HIF1A 564-581 D571K]

Target: T3, USP20 DUSP2 domain K833E/K835E (for FP)
Test: FP

Kd | Binder
> 290 µM | {FITC}-SDDDLAWNIAPQGLQ-NH2 [FITC-GPR137B 348-362]

Target: T4, USP33 DUSP2 domain, tag cleaved (for FP)
Test: FP

Binder | Kd
Ac-QLEEELFQLRQGPAG-NH2 [CCDC88B_(947-961) peptide] | 40 µM
Ac-SDDDLAWNIAPQGLQ-NH2 [GPR137B_(348-362) peptide] | > 200 µM

Next, values leading:

Kd | Binder
> 1000 µM | Ac-PYIPMDGEDFQLSPICPE-NH2 [HIF2A peptide 531-548]
0.8 µM | Ac-DVVDDFQLQHRHGPG-NH2 [MFSD2B_(395-409) peptide]

Target: T5, USP33 zf-UBP domain, tag cleaved (for …)
Test: FP

Binder | Kd
Ac-LQPSSKASLESTSDL-NH2 [CEP192 2073-2087] | 14 µM
Ac-EKVKRRLDLDID-NH2 [CCP110_(582-593) peptide] | > 250 µM

Other lines, results leading:

Kd | Binder
8 µM | Ac-TNSSGKMALNSPQPG-NH2 [IRAG1 302-316]
41 µM | Ac-PFQPGRMALESQSPG-NH2 [USP19 874-888]

target: USP20 zf-UBP domain, tag cleaved (for FP) (human); test: FP
Sequence (chain, as listed by the source): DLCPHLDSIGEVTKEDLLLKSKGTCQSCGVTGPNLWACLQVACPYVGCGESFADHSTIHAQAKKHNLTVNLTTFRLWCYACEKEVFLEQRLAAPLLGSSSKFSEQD

Kd | Binder
37 µM | Ac-LQPSSKASLESTSDL-NH2 [CEP192 2073-2087]
9 µM | Ac-TNSSGKMALNSPQPG-NH2 [IRAG1 302-316]
> 500 µM | Ac-EKVKRRLDLDID-NH2 [CCP110_(582-593) peptide]
